As usually defined, the stoichiometry N is a count of units in the complex or per binding partner. By Kd is commonly meant a measure of binding affinity in units of concentration. A higher Kd goes with a looser complex.

Data on four molecules can be found in article PMC4370504, “Structural Basis for Ubiquitin Recognition by Ubiquitin-Binding Zinc Finger of FAAP20” (PLoS ONE, 2015).

Common to all, as to assay: SPR; Biacore T200, Sensor Chip C1; GST-fused Ub or Ub2 captured by immobilised anti-GST antibodies (200-400 RU); FAAP20-UBZ injected 60 s at 10 uL/min; 25°C, HBS-P (10 mM HEPES-Na pH 7.4, 150 mM NaCl, 0.05% surfactant P20); equilibrium fit, 1:1 model; triplicate
Settings in all cases: both partners purified

The target of experiment [1] is T1, GST-fused K63-linked diubiquitin (K63-Ub2) (UniProt P0CG48 1-76; P0CG48 1-76, K63R | additional aspartate residue at its C-terminal extremity (D77), K63-linked to the other Ub chain | K63-linked to the other Ub chain).
T1 construct: ubiquitin carrying the K63R mutation, GST-fused; ubiquitin with an additional aspartate residue at its C-terminal extremity (D77 Ub); Surmised: Gly76 of GST-K63R Ub (distal) is joined by an isopeptide bond to Lys63 of D77 Ub (proximal); also called K63-linked Ub2; GST-fused K63-Ub2

For experiment [2], the target named is T2, GST-fused M1-linked diubiquitin (M1-Ub2) (UniProt P0CG48 1-76; P0CG48 1-76).
T2 construct: ubiquitin, first (distal) moiety of the M1-linked (linear, head-to-tail) diubiquitin; ubiquitin, second (proximal) moiety, its Met1 joined to Gly76 of the first; Written as one chain of two ubiquitins, as M1-linked; also called M1-linked Ub2; GST-fused M1-Ub2; source: purified (Glutathione Sepharose FF, ResourceQ)

Experiment [3] has as its target T3, GST-fused K48-linked diubiquitin (K48-Ub2) (UniProt P0CG48 1-76; P0CG48 1-76, K48R | additional aspartate residue at its C-terminal extremity (D77), K48-linked to the other Ub chain | K48-linked to the other Ub chain).
T3 construct: ubiquitin carrying the K48R mutation, GST-fused; ubiquitin with an additional aspartate residue at its C-terminal extremity (D77 Ub); Surmised: Gly76 of GST-Ub K48R (distal) is joined by an isopeptide bond to Lys48 of D77 Ub (proximal); also called K48-linked Ub2; GST-fused K48-Ub2

For experiment [4], the target named is T1, GST-fused K63-linked diubiquitin …. This is another data set of the same source.
Experiment [5] addresses T4, GST-fused ubiquitin (Ub) (UniProt P0CG48 1-76).
T4 construct: ubiquitin (Ub), the mature product of a ubiquitin precursor; Captured on the chip by anti-GST antibodies; source: purified (Glutathione Sepharose FF, ResourceQ)

The target of experiment [6] is T4, GST-fused ubiquitin (Ub). This is another data set of the same source.

Residue numbers refer to the chain shown, from its start.

B1: FAAP20-UBZ (UBZ domain of FAAP20, residues 142-180), wild type (domain or fragment, human, UniProt Q6NZ36 142-180, looked up)
chain: AALRSCPMCQKEFAPRLTQLDVDSHLAQCLAESTEDVTW
notes: also called FAAP20-UBZ(wt); WT; source: E. coli Rosetta (DE3), purified (Glutathione Sepharose FF, ResourceQ, HRV3C cleavage, Superdex75); not shown: GST, N-terminal, cleaved
Take B1: the “stoichiometry N” value in experiment [1] is 2. The Kd was 22.3 µM in experiment [2], 39.1 µM in experiment [3], 35.9 µM in experiment [4] and 19.9 µM in the experiment with GST-fused ubiquitin (Ub) [5].

B2: FAAP20-UBZ L161A (domain or fragment, human, UniProt Q6NZ36 142-180, looked up)
chain: B1 chain with L20A
notes: human FAAP20, UBZ domain, residues 142-180; source: purified similarly to wild-type FAAP20-UBZ (E. coli Rosetta (DE3)); not shown: GST, N-terminal, cleaved
B2 showed a Kd in the experiment with GST-fused ubiquitin (Ub) [6] of 125 µM.

B3: FAAP20-UBZ A172L (domain or fragment, human, UniProt Q6NZ36 142-180, looked up)
chain: B1 chain with A31L
notes: as for B2
For B3, in the experiment with GST-fused ubiquitin (Ub) [6], the dissociation constant Kd was found to be 113 µM.

B4: FAAP20-UBZ D177A (domain or fragment, human, UniProt Q6NZ36 142-180, looked up)
chain: B1 chain with D36A
notes: as for B2
For the molecule B4, in the experiment with GST-fused ubiquitin (Ub) [6], binding was put at a Kd of 218 µM.
